Test results reported in patent US9663815B2, “Cytosolically-active peroxidases as reporters for microscopy” (Massachusetts Institute of Technology, priority 2011, dated 2017).

Legend:
connexin43 (Cx43) = test: Connexin43 fusion localization to gap junctions; type: cell-based, rat; conditions: for localization of connexin43 fusion / gap junction formation: fused to connexin43
Procedure: Both mAPX and wt APX were fused to connexin43 (Cx43), a protein that is sensitive to oligomeric tags (FIG. 4d) (McKinney, et. al., Nat Meth 6, 131-133 (2009); Lauf, et. al., FEBS letters 498, 11-15 (2001)).
(§1) To generate a monomeric APX with improved activity, the two mAPX mutations (K14D/E112K) were added to each of the activity-enhanced mutants. […] The sextuple mutant (K14D, E112K, W41F, D133A, T135F, K136F=mAPX−FFAF), was compared to mAPX+W41F within cells. HEK cells were transfected with constructs targeted to the mitochondrial matrix (Table 3), while COS-7 cells were transfected with constructs fused to the C-terminus of connexin 43 (Table 3). After fixation, the cells were treated with DAB and H2O2 to generate DAB polymer. […] After fixation, cells were stained with anti-Flag (for matrix) or anti-myc (for connexin) antibody to visualize peroxidase expression levels. […] Therefore mAPX+W41F (K14D/E112K/W41F) was selected, denoted as “APEX” (for Enhanced APX), as the optimized reporter for subsequent experiments.
(§2) Any cell displaying detectable GFP fluorescence was considered transfected. Contact sites between neighboring transfected cells were identified using DIC imaging. Gap junctions were identified as lines of GFP fluorescence unambiguously overlaying with the plasma membrane of two transfected cells based on DIC. DAB stain intensity for APX-NES variants was analyzed using SlideBook. Transfected cells were identified by nuclear YFP fluorescence. In each transfected cell, a representative DAB-stained region was encircled, and its average brightfield intensity was calculated. Background intensity, determined for each field of view by encircling a representative region in the cytosol of an untransfected cell, was subtracted out. The bar graph in FIG. 2c represents mean data from >60 transfected cells.

[1] = Gel filtration chromatography, oligomerization state; type: physicochemical; conditions: PBS pH 7.4
Procedure: APX, fluorescent protein, or miniSOG preparations were diluted to the desired concentrations using chilled (4° C.) PBS and then allowed to incubate at room temperature for 30 min to overnight. Samples (100 μL) were run on a Waters HPLC system over a Superdex 75 10/300 column (GE Healthcare) that had been pre-equilibrated in PBS, pH 7.4. Samples were run isocratically in PBS at a flow rate of 0.5 mL/min. Elution of APX was monitored at 280 nm and 405 nm (heme absorbance). Empower software (Waters) was used for analysis of elution profiles. Apparent MWs were determined against low molecular weight standards (GE). […] The apparent MW of the monomer for wt APX was assumed to be equal to the apparent MW of mAPX at 0.25 μM.
To investigate whether this localization is an artifact of APEX dimerization at high concentrations, the experiment was repeated using a tandem dimer of APX^W41F (two APX^W41F proteins linked with a short amino acid chain, denoted tdAPX) as well as miniSOG in place of APEX. Additionally, gel filtration chromatography (GFC) was used to assess the relative abundance of oligomers that formed at increasing tdAPX concentrations in vitro (5 μM, 20 μM, and 47 μM). Three different linker lengths (18, 23, and 28 amino acids) were tested. His6-tagged proteins were expressed and purified from E. coli. All three variants gave a major peak with an apparent molecular weight (MW) of ˜56 kDa, as expected for tdAPX. The apparent MW of the major peak remained constant as a function of concentration for all three constructs. […] Therefore, the 28 amino acid linker variant was selected as the optimized tandem dimer to be used in EM experiments.

[2] = tested on: MCU (mitochondrial calcium uniporter); test: Functional assay for Ca2+ uptake of MCU fusions; type: cell-based, human; conditions: fusion to MCU, versus Flag-tagged MCU; data not shown
HEK cells = test: DAB staining of transfected cells (brightfield); type: cell-based
Procedure: Next, the activity of wt APX and mAPX was compared in mammalian cells.
as §1
A solution of 4% formaldehyde (freshly depolymerized from paraformaldehyde) with 2% glutaraldehyde in 10 mM phosphate buffered saline (PBS) was added to cells 24 hours after transfection. Cells were treated for 3 min at room temperature, then 30 min on ice. Cells were then washed 5×2 min using ice cold 10 mM PBS. Cells were blocked with 20 mM glycine for 5 min on ice. Cells were then washed 5×2 min with ice-cold 10 mM PBS. Cells were then treated with an ice-cold solution of DAB (0.5 mg/mL) and H2O2 (0.03%) in 10 mM PBS for 20 min. Cells were then washed 5×2 min with ice-cold 10 mM PBS. Cells were treated with 2% OsO4 in ice-cold 10 mM PBS for 30 min, then washed 5×2 min with ice-cold distilled deionized water. Cells were then placed under ice-cold 2% aqueous uranyl acetate for 24 hours.
as §2

COS-7 cells = test: EM imaging after DAB/OsO4 staining; type: cell-based
Procedure: Transfected cells cultured on poly-d-lysine coated glass bottom dishes (P35GC-0-14-C, MatTek Corp.) were fixed using room temperature 2% glutaraldehyde (Electron Microscopy Sciences) in 100 mM sodium cacodylate buffer with 2 mM CaCl2, pH 7.4, then quickly moved to ice. Cells were kept between 0 and 4° C. for all subsequent steps until resin infiltration. After 30-60 min, cells were rinsed 5×2 min in chilled buffer, then treated for 5 min in buffer containing 20 mM glycine to quench unreacted glutaraldehyde, followed by 5×2 min rinses in chilled buffer. A freshly-diluted solution of 0.5 mg/mL 3,3′-diaminobenzidine (DAB) tetrahydrochloride or the DAB free base (Sigma) dissolved in HCl were combined with 0.03% (v/v) H2O2 in chilled buffer, and the solution was added to cells for 1 to 15 min, depending on the sample. The reaction product generation could be monitored by transmitted LM. To halt the reaction, the DAB solution was removed, and cells were rinsed 5×2 min with chilled buffer. For correlated LM-EM imaging of connexin43-GFP-APEX, the procedure was the same except cells were immersed in 2% glutaraldehyde for ˜16 h, and regions of interest were identified by GFP fluorescence prior to treatment with DAB. After the DAB reaction was halted, cells were post-fixed for 30 min using 2% osmium tetroxide (Electron Microscopy Sciences) in chilled buffer. Cells were rinsed 5×2 min in chilled distilled water, then placed in chilled 2% aqueous uranyl acetate (Electron Microscopy Sciences) overnight. […]
DAB-stained areas of embedded cultured cells were identified by transmitted light and the areas of interest were sawed out using a jeweler's saw and mounted on dummy acrylic blocks with cyanoacrylic adhesive. […] Electron micrographs recorded using a JEOL 1200 TEM operating at 80 keV.

[3] = Guaiacol activity assay (Michaelis-Menten kinetics); type: biochemical; conditions: guaiacol as substrate, purified enzyme
Procedure: Data points represent the mean±standard deviation of 2-3 independent measurements. Initial rates are shown as a function of guaiacol concentration. H2O2 concentration was 90 μM, and enzyme concentration was 20 nM in all trials. Oxidation to tetraguaiacol was monitored by absorbance at 470 nm (ε470=22×10^3 M^−1 cm^−1)^2.
High activity toward guaiacol generally correlated well with robust polymerization of DAB in vitro. Guaiacol assays were performed on a Nanodrop 2000c UV-vis spectrophotometer (Thermo Scientific) using its cuvette reader. HRP (Sigma) was prepared as a 10 μM stock in PBS, flash frozen and stored at −80° C., and thawed immediately before use. Guaiacol peroxidase activity was measured according to the protocol of Lad et. al.^35 Oxidation to tetraguaiacol was monitored by absorbance at 470 nm (ε470=22×10^3 M^−1 cm^−1). Kcat and KM were calculated by nonlinear regression fitting to the Michaelis-Menten equation using OriginPro (OriginLab Corporation). All values are reported as the mean±standard deviation for 2-3 independent Michaelis-Menten fittings, with each fitting using at least 5 values of substrate concentration ranging between 0.25 and 30 mM.
In order to improve the performance of mAPX in mammalian cells, monomeric APX was engineered with improved activity toward DAB in the hope that faster kinetics could compensate for diminished heme binding. The substrate binding site of APX was compared to that of HRP, which has faster kinetics and broader aromatic substrate tolerance (Henriksen, et. al., Journal of Biological Chemistry 274, 35005-35011 (1999)). In order to make APX more HRP-like, seven mutants of APX were designed that incorporated mostly aromatic residues into the active site (FIG. 5a). A colorimetric assay was employed using guaiacol, a prototypical aromatic peroxidase substrate, to determine Michaelis-Menten parameters (Kumar, et. al., Journal of Cell Science 108, 3725-3734 (1995); Henriksen, et. al., Journal of Biological Chemistry 274, 35005-35011 (1999)) (FIG. 5b and FIG. 10). […]

B1: APEX: triple mutant K14D/W41F/E112K of pea APX, Enhanced APX reporter (protein, listed as Pisum sativum)
chain: MGKSYPTVSPDYQDAIEKAKRKLRGFIAEKKCAPLILRLAFHSAGTFDSKTKTGGPFGTIKHQAELAHGANNGLDIAVRLLEPIKEQFPIVSYADFYQLAGVVAVEITGGPKVPFHPGREDKPEPPPEGRLPDATKGSDHLRDVFGKAMGLSDQDIVALSGGHTIGAAHKERSGFEGPWTSNPLIFDNSYFTELLTGEKDGLLQLPSDKALLTDSVFRPLVEKYAADEDVFFADYAEAHLKLSELGFAEA
What does the source list for B1?
DAB stain of connexin fusion (connexin43 (Cx43); COS-7 cells, fused to C-terminus of connexin 43): strong DAB stain; localization of connexin43 fusion / gap junction formation (connexin43 (Cx43)): behaves well as a fusion to Cx43; localization of connexin43 fusion / gap junction formation (connexin43 (Cx43); listed as mAPX+W41F): incorporated well into gap junctions; oligomerization state [1]: equally monomeric to mAPX; Ca2+ uptake of MCU fusion [2]: performed comparably to MCU appended to a small Flag epitope tag; DAB staining activity in mitochondrial matrix (HEK cells; mitochondrial matrix-targeted constructs, HEK cells): much stronger DAB stain; EM contrast / DAB staining, ER lumen (COS-7 cells; KDEL-targeted, COS-7): dense DAB staining throughout the ER tubular network; EM contrast / DAB staining, mitochondrial matrix (COS-7 cells; Mito matrix-APEX, COS-7): strong contrast and well-defined cristae structures; activity in the intermembrane space (IMS) (COS-7 cells; separate controls): highly active

B2: mAPX-NES: Flag-mAPX with C-terminal nuclear export signal, cytosolic expression (protein, UniProt P48534 2-250, looked up, variant K14D E112K)
L-ascorbate peroxidase, …: GKSYPTVSPDYQDAIEKAKRKLRGFIAEKKCAPLILRLAWHSAGTFDSKTKTGGPFGTIKHQAELAHGANNGLDIAVRLLEPIKEQFPIVSYADFYQLAGVVAVEITGGPKVPFHPGREDKPEPPPEGRLPDATKGSDHLRDVFGKAMGLSDQDIVALSGGHTIGAAHKERSGFEGPWTSNPLIFDNSYFTELLTGEKDGLLQLPSDKALLTDSVFRPLVEKYAADEDVFFADYAEAHLKLSELGFAEA
modifications: N-terminal Flag tag; C-terminal nuclear export signal
notes: Flag-mAPX with C-terminal nuclear export signal, cytosolic expression
With B2 as the molecule, how does the “activity after culturing the cells with heme” value (HEK cells; cytosol (NES), heme added after transfection) read?
Its value is “significantly boosted”.

B3: W41F/G69F/D133A/T135F/K136F: quintuple, most HRP-like active-site mutant of pea APX (protein, UniProt P48534 2-250, looked up, variant W41F G69F D133A T135F K136F)
L-ascorbate peroxidase, …: GKSYPTVSPDYQKAIEKAKRKLRGFIAEKKCAPLILRLAFHSAGTFDSKTKTGGPFGTIKHQAELAHFANNGLDIAVRLLEPIKEQFPIVSYADFYQLAGVVAVEITGGPEVPFHPGREDKPEPPPEGRLPAAFFGSDHLRDVFGKAMGLSDQDIVALSGGHTIGAAHKERSGFEGPWTSNPLIFDNSYFTELLTGEKDGLLQLPSDKALLTDSVFRPLVEKYAADEDVFFADYAEAHLKLSELGFAEA
Which “activity in vitro (guaiacol)” value [3] does the source give for B3 here?
The value was “most active”.

B4: mAPX−FFAF: sextuple mutant K14D, E112K, W41F, D133A, T135F, K136F of pea APX (protein, UniProt P48534 2-250, looked up, variant K14D E112K W41F D133A T135F K136F)
L-ascorbate peroxidase, …: GKSYPTVSPDYQDAIEKAKRKLRGFIAEKKCAPLILRLAFHSAGTFDSKTKTGGPFGTIKHQAELAHGANNGLDIAVRLLEPIKEQFPIVSYADFYQLAGVVAVEITGGPKVPFHPGREDKPEPPPEGRLPAAFFGSDHLRDVFGKAMGLSDQDIVALSGGHTIGAAHKERSGFEGPWTSNPLIFDNSYFTELLTGEKDGLLQLPSDKALLTDSVFRPLVEKYAADEDVFFADYAEAHLKLSELGFAEA
With B4 as the molecule, how does the “localization of connexin43 fusion / gap junction formation” value (connexin43 (Cx43)) read?
The value was “formed very few gap junctions”.
